# Molecular target: the molecule itself
# Experiment: crystal structure
protein,measurement,value
"Mycobacterium tuberculosis class II fructose-1,6-bisphosphatase (enzyme, also called MtFBPaseII; MtFBPase) MELVRVTEAGAMAAGRWVGRGDKEGGDGAAVDAMRELVNSVSMRGVVVIGEGEKDHAPMLYNGEEVGNGDGPECDFAVDPIDGTTLMSKGMTNAISVLAVADRGTMFDPSAVFYMNKIAVGPDAAHVLDITAPISENIRAVAKVKDLSVRDMTVCILDRPRHAQLIHDVRATGARIRLITDGDVAGAISACRPHSGTDLLAGIGGTPEGIIAAAAIRCMGGAIQAQLAPRDDAERRKALEAGYDLNQVLTTEDLVSGENVFFCATGVTDGDLLKGVRYYPGGCTTHSIVMRSKSGTVRMIEAYHRLSKLNEYSAIDFTGDSSAVYPLP",stoichiometry N,4

# Source: doi:10.1101/2022.09.05.506711, “New structures of Class II Fructose-1,6-Bisphosphatase from Francisella tularensis suggest a novel catalytic mechanism for the entire Class” (bioRxiv, 2022)
